Source: article PMC11929449, “Epitope-directed selection of GPCR nanobody ligands with evolvable function” (Proceedings of the National Academy of Sciences of the …, 2025)
Like-named read-outs stand apart in the source and are kept apart here.

Tests used:
[1] = target: FLAG-tagged wild-type human angiotensin II type I receptor (FLAG-AT1R) (human) (UniProt P30556); assay: flow cytometry on cells; purified nanobody (single point 250 nM, or titrated) on Expi293F TetR cells expressing FLAG-AT1R preincubated with 10 μM olmesartan at 4 °C for 30 min; detected with αV5-AlexaFluor647; 20 mM Hepes pH 7.4, 150 mM NaCl, 0.1% BSA
[2] = target: T1, FLAG-tagged wild-type human angiotensin II type I receptor (FLAG-AT1R) (Homo sapiens, UniProt P30556)
[3] = target: T2, FLAG-tagged human angiotensin II type I receptor (FLAG-AT1R) (human); assay: flow cytometry on cells; soluble nanobody titrated on Expi293F TetR cells expressing FLAG-AT1R, receptor pre-bound to losartan (10 μM, 5 μM in washes); 20 mM Hepes pH 7.4, 150 mM NaCl, 0.1% BSA, 4 °C; detected with αV5-AlexaFluor647; conditions: one partner purified
T2 construct: also called WT receptor; pMAS85; source: Expi293F TetR, transfected, purified in LMNG/CHS (M1-αFLAG resin, SEC); also Expi293F TetR cells stably expressing FLAG-AT1R under a tetracycline-inducible promoter, on intact cells; not shown: FLAG, N-terminal, kept
T2 chain: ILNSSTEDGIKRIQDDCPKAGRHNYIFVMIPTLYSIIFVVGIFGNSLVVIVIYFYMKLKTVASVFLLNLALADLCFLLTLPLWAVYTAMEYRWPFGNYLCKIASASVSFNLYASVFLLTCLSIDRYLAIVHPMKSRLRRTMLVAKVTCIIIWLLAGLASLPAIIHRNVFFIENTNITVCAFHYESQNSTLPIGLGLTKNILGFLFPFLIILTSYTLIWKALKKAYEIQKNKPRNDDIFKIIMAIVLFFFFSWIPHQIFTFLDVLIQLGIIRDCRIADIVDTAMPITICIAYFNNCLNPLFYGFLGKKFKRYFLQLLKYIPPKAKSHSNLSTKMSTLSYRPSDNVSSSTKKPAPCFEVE

[4] = target: T2, FLAG-tagged human angiotensin II type I …; assay: flow cytometry on cells; soluble nanobody titrated on Expi293F TetR cells expressing FLAG-AT1R, unliganded receptor; 20 mM Hepes pH 7.4, 150 mM NaCl, 0.1% BSA, 4 °C; detected with αV5-AlexaFluor647; conditions: one partner purified
[5] = target: T1, FLAG-tagged wild-type human angiotensin …; assay: flow cytometry on cells; purified nanobody (single point 250 or 500 nM, or titrated) on Expi293F TetR cells expressing FLAG-AT1R preincubated with 10 μM losartan at 4 °C for 30 min; detected with αV5-AlexaFluor647; 20 mM Hepes pH 7.4, 150 mM NaCl, 0.1% BSA; conditions: one partner purified
[6] = target: T1, FLAG-tagged wild-type human angiotensin …; assay: flow cytometry on cells; purified nanobody (single point 250 or 500 nM, or titrated) on Expi293F TetR cells expressing FLAG-AT1R, unliganded; 1 h; detected with αV5-AlexaFluor647; 20 mM Hepes pH 7.4, 150 mM NaCl, 0.1% BSA; conditions: one partner purified
[7] = target: T1, FLAG-tagged wild-type human angiotensin …; assay: flow cytometry on cells; nanobody displayed on yeast; 100 nM unliganded detergent-purified FLAG-AT1R in solution, detected with fluorophore-conjugated M1-αFLAG; 4 °C, 30 min; 20 mM Hepes pH 7.5, 150 mM NaCl, 2.8 mM CaCl2, 0.05% LMNG, 0.005% CHS; conditions: one partner purified

T1 sequence (P30556 whole entry): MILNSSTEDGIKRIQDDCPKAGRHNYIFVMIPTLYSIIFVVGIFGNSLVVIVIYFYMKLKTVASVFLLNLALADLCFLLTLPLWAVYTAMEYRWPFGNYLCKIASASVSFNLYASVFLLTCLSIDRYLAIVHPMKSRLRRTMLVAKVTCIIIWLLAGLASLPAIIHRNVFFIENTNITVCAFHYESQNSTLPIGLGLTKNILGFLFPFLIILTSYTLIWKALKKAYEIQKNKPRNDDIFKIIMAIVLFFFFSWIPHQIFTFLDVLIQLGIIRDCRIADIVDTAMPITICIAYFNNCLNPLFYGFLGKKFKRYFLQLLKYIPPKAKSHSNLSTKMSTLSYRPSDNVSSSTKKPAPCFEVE

B1: AT209 (VHH)
VHH: QVQLQESGGGLVQAGGSLRLSCAASGYIFYRYSMGWYRQAPGKEREFVAGISYGATTNYADSVKGRFTISRDNAKNTVYLQMNSLKPEDTAVYYCAAWGGRTLYFVYWGQGTQVTVSS
Q: B1 was tested. Which Kd [1] did it give?
A: 100 nM

B2: AT201 (VHH)
VHH: QVQLQESGGGLVQAGGSLRLSCAASGTISDPPYMGWYRQAPGKERELVAAIDVGANTYYADSVKGRFTISRDNAKNTVYLQMNSLKPEDTAVYYCAVEYDAQVPHQYWGQGTQVTVSS
Q: Does B2 bind [2]?
A: binds

B3: AT203 (VHH)
VHH: QVQLQESGGLVQAGGSLRLSCAASGYISRSYDMGWYRQAPGKERELVASINEGSTTNYADSVKGRFTISRDNAKNTVYLQMNSLKPEDTAVYYCAAYTYGHGDYHVYWGQGTQVTVSS
Q: Does B3 bind [2]?
A: binds

B4: AT210 (VHH)
VHH: QVQLQESGGGLVQAGGSLRLSCAASGTISSWSFMGWYRQAPGKEREFVATIAPGSSTNYADSVKGRFTISRDNAKNTVYLQMNSLKPEDTAVYYCAVYYGVPRFHVYWGQGTQVTVSS
Q: Does B4 bind [2]?
A: binds

B5: AT212 (VHH)
VHH: QVQLQESGGGLVQAGGSLRLSCAASGSISNYKYMGWYRQAPGKERELVATIGGGATTNYADSVKGRFTISRDNAKNTVYLQMNSLKPEDTAVYYCAAVRAGYSLYYPYFYYWGQGTQVTVSS
Q: Does B5 bind [2]?
A: binds

B6: AT213 (VHH)
VHH: QVQLQESGGGLVQAGGSLRLSCAASGYIFYGATMGWYRQAPGKEREFVAGINYGGSTNYADSVKGRFTISRDNAKNTVYLQMNSLKPEDTAVYYCAVWDTYAQRRSSYFVYWGQGTQVTVSS
Q: Does B6 bind [2]?
A: binds

B7: nanobody AT206 (VHH)
VHH: QVQLQESGGGLVQAGGSLRLSCAASGSISYYRMGWYRQAPGKEREFVAGIGVGTTTNYADSVKGRFTISRDNAKNTVYLQMNSLKPEDTAVYYCAAYNYFPRSIVYYYVYWGQGTQVTVSS
notes: source: E. coli BL21(DE3), periplasm, purified (Ni-NTA); not shown: V5, C-terminal, kept
Q: B7 was tested. Which Kd [3] did it give?
A: 363 nM

B8: AT118-H CDR1-AT206 CDR2 CDR3 chimeric nanobody (AT118-AT206) (VHH)
VHH: QVQLQESGGGLVQAGGSLRLSCAASDYIYRRYRMGWYRQAPGKEREFVAGIGVGTTTNYADSVKGRFTISRDNAKNTVYLQMNSLKPEDTAVYYCAAYNYFPRSIVYYYVYWGQGTQVTVSS
notes: AT206 with its CDR1 replaced by CDR1 of AT118-H and the G26D stabilising substitution; also called AT118-H G26D CDR1, AT206 CDR 2&3; source: E. coli BL21(DE3), periplasm, purified (Ni-NTA); not shown: V5, C-terminal, kept
Q: Which Kd [4] does the source give for B8 here?
A: 206 nM

Q: What about the Kd [3] of the same binder?
A: 153 nM

B9: nanobody AT209 L103D (VHH)
VHH: QVQLQESGGGLVQAGGSLRLSCAASGYIFYRYSMGWYRQAPGKEREFVAGISYGATTNYADSVKGRFTISRDNAKNTVYLQMNSLKPEDTAVYYCAAWGGRTDYFVYWGQGTQVTVSS
notes: the substitution L103D is still to be applied; also called AT209 L103D^CDR3; source: E. coli BL21(DE3), periplasm, purified (Ni-NTA); not shown: V5, C-terminal, kept
Q: B9 was tested. Which Kd [4] did it give?
A: 144 nM

B10: AT208 (VHH)
VHH: QVQLQESGGGLVQAGGSLRLSCAASGYIFTRYRMGWYRQAPGKEREFVAAIGDGGTTNYADSVKGRFTISRDNAKNTVYLQMNSLKPEDTAVYYCAAYYVSRPNYGTIYVYWGQGTQVTVSS
notes: synthetic nanobody AT208; source: E. coli BL21(DE3), periplasm, purified (Ni-NTA); not shown: V5, C-terminal, kept
Q: Does B10 bind [5]?
A: binds

B11: AT211 (VHH)
VHH: QVQLQESGGGLVQAGGSLRLSCAASGTISHSAGMGWYRQAPGKERELVAAISGGTITNYADSVKGRFTISRDNAKNTVYLQMNSLKPEDTAVYYCAALGYWRRAGGTYYVVHYYWGQGTQVTVSS
notes: synthetic nanobody AT211; source: E. coli BL21(DE3), periplasm, purified (Ni-NTA); not shown: V5, C-terminal, kept
Q: Does B11 bind [5]?
A: binds

B12: AT206 (VHH)
VHH: QVQLQESGGGLVQAGGSLRLSCAASGSISYYRMGWYRQAPGKEREFVAGIGVGTTTNYADSVKGRFTISRDNAKNTVYLQMNSLKPEDTAVYYCAAYNYFPRSIVYYYVYWGQGTQVTVSS
notes: synthetic nanobody AT206; also in the deposited structures; also called parent clone of AT118-AT206; source: E. coli BL21(DE3), periplasm, purified (Ni-NTA); not shown: V5, C-terminal, kept
Q: Does B12 bind [5]?
A: binds

B13: AT209 L103D (VHH)
VHH: QVQLQESGGGLVQAGGSLRLSCAASGYIFYRYSMGWYRQAPGKEREFVAGISYGATTNYADSVKGRFTISRDNAKNTVYLQMNSLKPEDTAVYYCAAWGGRTDYFVYWGQGTQVTVSS
notes: as the chain of AT209 with L103D in CDR3; also called AT209 L103D^CDR3; AT209 L103D variant; source: E. coli BL21(DE3), periplasm, purified (Ni-NTA); not shown: V5, C-terminal, kept
Q: Does B13 bind [6]?
A: binds

B14: AT118-H CDR1-AT206 CDR2 CDR3 chimeric nanobody (AT118-AT206) (VHH)
VHH: QVQLQESGGGLVQAGGSLRLSCAASDYIYRRYRMGWYRQAPGKEREFVAGIGVGTTTNYADSVKGRFTISRDNAKNTVYLQMNSLKPEDTAVYYCAAYNYFPRSIVYYYVYWGQGTQVTVSS
notes: as the chain of AT206 with CDR1 replaced by CDR1 of AT118-H and the stabilising substitution G26D; also called AT118-AT206 chimera; source: E. coli BL21(DE3), periplasm, purified (Ni-NTA); not shown: V5, C-terminal, kept
Q: B14 was tested. Which “fold increase in affinity over AT206” value [5] did it give?
A: 2 fold

B15: AT206, yeast-displayed (VHH)
VHH: QVQLQESGGGLVQAGGSLRLSCAASGSISYYRMGWYRQAPGKEREFVAGIGVGTTTNYADSVKGRFTISRDNAKNTVYLQMNSLKPEDTAVYYCAAYNYFPRSIVYYYVYWGQGTQVTVSS
notes: synthetic nanobody AT206; also in the deposited structures; the anchor is not described here
Q: Does B15 bind [7]?
A: binds

B16: AT205 (VHH)
VHH: QVQLQESGGGLVQAGGSLRLSCAASGYIFYDSVMGWYRQAPGKEREFVAAIAAGSSTNYADSVKGRFTISRDNAKNTVYLQMNSLKPEDTAVYYCGEYYNWLHQYWGQGTQVTVSS
notes: synthetic nanobody AT205; source: E. coli BL21(DE3), periplasm, purified (Ni-NTA); not shown: V5, C-terminal, kept
Q: Does B16 bind [5]?
A: binds

B17: AT207 (VHH)
VHH: QVQLQESGGGLVQAGGSLRLSCAASGYIFTHSSMGWYRQAPGKEREFVAAITVGANTNYADSVKGRFTISRDNAKNTVYLQMNSLKPEDTAVYYCAAYNPFYPVYIYWGQGTQVTVSS
notes: synthetic nanobody AT207; source: E. coli BL21(DE3), periplasm, purified (Ni-NTA); not shown: V5, C-terminal, kept
Q: Does B17 bind [5]?
A: binds
